Molecular target: Estrogen Receptor α (ER) (UniProt P03372)
Assay: cell-based or functional assay

Estrogen Receptor α (ER), sequence (P03372 whole entry): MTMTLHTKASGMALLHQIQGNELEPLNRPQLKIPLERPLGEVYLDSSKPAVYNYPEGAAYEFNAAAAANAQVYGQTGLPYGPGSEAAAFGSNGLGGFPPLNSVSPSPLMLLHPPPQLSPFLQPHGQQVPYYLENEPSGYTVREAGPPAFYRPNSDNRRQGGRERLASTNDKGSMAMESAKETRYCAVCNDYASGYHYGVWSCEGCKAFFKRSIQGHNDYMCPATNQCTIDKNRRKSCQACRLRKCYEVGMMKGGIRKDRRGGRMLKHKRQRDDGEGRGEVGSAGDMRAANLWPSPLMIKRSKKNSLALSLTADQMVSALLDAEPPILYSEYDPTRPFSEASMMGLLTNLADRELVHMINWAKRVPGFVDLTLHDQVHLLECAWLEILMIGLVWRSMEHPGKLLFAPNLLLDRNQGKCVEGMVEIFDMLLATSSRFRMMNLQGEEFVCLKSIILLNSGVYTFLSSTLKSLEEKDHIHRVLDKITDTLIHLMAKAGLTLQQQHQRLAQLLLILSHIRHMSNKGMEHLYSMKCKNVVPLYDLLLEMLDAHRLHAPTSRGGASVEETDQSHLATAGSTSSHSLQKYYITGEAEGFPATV

- presence of ERα in the nucleus of estradiol stimulated MCF-7 cells: > 90%
Substance: MTA1s-del (from UniProt Q13330 1-397)

Source: patent publication US20060204957A1, “Mta1s, a steriod hormone receptor corepressor” (priority 2002, published 2006)
